# B1: anti-PTPRZ1 scFv RB473, scFv-Rabbit Fc (scFv, V domains shown)
# VH: not shown
# VL: QSVLTQPPSVSAAPGQKVTISCSGSSSNIGNNYVSWYQQLPGTAPKLLIYDNNKRPSGIPDRFSGSKSGTSATLGITGLQTGDEADYYCGTYDYIATRAVFGGGTKLTVL
# Assays:
# [1] = molecular target: PTPRZ1 CA protein (Cusabio Technology LLC, CSB-YP019068HU) (Homo sapiens, UniProt P23471); test: SPR
# [2] = molecular target: carbonic anhydrase II protein (Sigma Aldrich, C2522) (Bos taurus, UniProt P00921); test: SPR
# carbonic anhydrase II protein (Sigma Aldrich, C2522), sequence (P00921 whole entry): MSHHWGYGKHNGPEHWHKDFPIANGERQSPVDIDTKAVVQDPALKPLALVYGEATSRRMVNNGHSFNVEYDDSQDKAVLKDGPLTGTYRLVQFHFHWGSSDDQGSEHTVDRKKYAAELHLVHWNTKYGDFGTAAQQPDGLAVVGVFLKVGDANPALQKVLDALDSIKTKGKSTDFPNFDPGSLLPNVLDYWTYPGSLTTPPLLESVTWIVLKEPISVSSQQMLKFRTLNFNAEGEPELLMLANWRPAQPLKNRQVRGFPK
# PTPRZ1 CA protein (Cusabio Technology LLC, CSB-YP019068HU), sequence (P23471 36-300): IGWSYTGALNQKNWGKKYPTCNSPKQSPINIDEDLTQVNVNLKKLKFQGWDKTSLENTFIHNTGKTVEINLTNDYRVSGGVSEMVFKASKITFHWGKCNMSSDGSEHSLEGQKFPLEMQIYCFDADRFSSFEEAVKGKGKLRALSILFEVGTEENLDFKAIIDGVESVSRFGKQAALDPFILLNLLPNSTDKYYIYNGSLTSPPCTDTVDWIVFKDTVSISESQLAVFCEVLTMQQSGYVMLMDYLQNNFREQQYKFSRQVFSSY
binder,measurement,setting,value
B1,Kd,[1],57.4 nM
same,binding result,[2],no binding (tested: 800 nM)

# Source: article doi:10.1101/2023.12.23.573190 (bioRxiv, 2023)
